Target: T1, Extracellular domain of human CDH11 (Abnova) (human, UniProt P55287 54-617)
T1 construct: cadherin-11 (CDH11), human, extracellular domain; No catalogue number is printed; also called cadherin-11; immobilized CDH11; source: bought: Abnova
T1 sequence (looked up): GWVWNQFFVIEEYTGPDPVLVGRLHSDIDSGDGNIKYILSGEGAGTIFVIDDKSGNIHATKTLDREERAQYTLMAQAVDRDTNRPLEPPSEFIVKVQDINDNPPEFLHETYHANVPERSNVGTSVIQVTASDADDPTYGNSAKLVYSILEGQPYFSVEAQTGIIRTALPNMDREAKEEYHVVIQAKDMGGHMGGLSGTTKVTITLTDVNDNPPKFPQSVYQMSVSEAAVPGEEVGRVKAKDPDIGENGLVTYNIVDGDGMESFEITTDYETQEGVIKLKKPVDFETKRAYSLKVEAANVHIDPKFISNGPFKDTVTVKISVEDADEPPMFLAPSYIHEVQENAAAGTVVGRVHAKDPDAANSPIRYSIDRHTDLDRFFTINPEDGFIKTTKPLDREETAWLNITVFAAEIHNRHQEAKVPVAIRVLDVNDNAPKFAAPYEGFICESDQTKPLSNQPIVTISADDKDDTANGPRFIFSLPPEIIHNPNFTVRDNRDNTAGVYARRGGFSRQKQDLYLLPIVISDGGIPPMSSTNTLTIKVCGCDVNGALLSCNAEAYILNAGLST
Test: SPR; BIACore 3000; extracellular domain of human CDH11 immobilised on a CM5 chip by amine coupling; PBS running buffer; cANGPTL4 injected at 28.6, 14.3, 7.15, 3.58 and 1.79 nM, 10 uL/min; Langmuir 1:1 model
Conditions: both partners purified

- Kd: 42.8 nM
B1: recombinant human cANGPTL4 (C-terminal fibrinogen-like domain of angiopoietin-like 4) (domain or fragment, UniProt Q9BY76 179-401, looked up)
chain: SRLHRLPRDCQELFQVGERQSGLFEIQPQGSPPFLVNCKMTSDGGWTVIQRRHDGSVDFNRPWEAYKAGFGDPHGEFWLGLEKVHSITGDRNSRLAVQLRDWDGNAELLQFSVHLGGEDTAYSLQLTAPVAGQLGATTVPPSGLSVPFSTWDQDHDLRRDKNCAKSLSGGWWFGTCSHSNLNGQYFRSIPQQRQKLKKGIFWKTWRGRYYPLQATTMLIQPMA
notes: angiopoietin-like 4 (ANGPTL4), human, C-terminal fibrinogen-like domain (cANGPTL4); also called recombinant cANGPTL4 protein; source: purified protein for SPR, added to fibroblast cultures and applied to wounds

From publication PMC5524754, “Angiopoietin-like 4 induces a β-catenin-mediated upregulation of ID3 in fibroblasts to reduce scar collagen expression” (Scientific Reports, 2017)
